Data reported in paper PMC11784217.

B1: wild-type US28 receptor with a C-terminal natural peptide tag (US28-NP) [human cytomegalovirus (HCMV)] / LgBiT-Gαq [not stated] (parent)
chain 1: MTPTTTTAELTTEFDYDEDATPCVFTDVLNQSKPVTLFLYGVVFLFGSIGNFLVIFTITWRRRIQCSGDVYFINLAAADLLFVCTLPLWMQYLLDHNSLASVPCTLLTACFYVAMFASLCFITEIALDRYYAIVYMRYRPVKQACLFSIFWWIFAVIIAIPHFMVVTKKDNQCMTDYDYLEVSYPIILNVELMLGAFVIPLSVISYCYYRISRIVAVSQSRHKGRIVRVLIAVVLVFIIFWLPYHLTLFVDTLKLLKWISSSCEFERSLKRALILTESLAFCHCCLNPLLYVFVGTKFRQELHCLLAEFRQRLFSRDVSWYHSMSFSRRSSPSRRETSSDTLSDEVCRVSQIIP
chain 2: MTLESIMACCLSEEAKEARRINDEIERQLRRDKRDARRELKLLLLGTGESGKSTFIKQMRIIHGSGYSDEDKRGFTKLVYQNIFTAMQAMIRAMDTLKIPYKYEHNKAHAQLVREVDVEKVSAFENPYVDAIKSLWNDPGIQECYDRRREYQLSDSTKYYLNDLDRVADPAYLPTQQDVLRVRVPTTGIIEYPFDLQSVIFRMVDVGGQRSERRKWIHCFENVTSIMFLVALSEYDQVLVESDNENRMEESKALFRTIITYPWFQNSSVILFLNKKDLLEEKIMYSHLVDYFPEYDGPQRDAQAAREFILKMFVDLNPDSDKIIYSHFTCATDTENIRFVFAAVKDTILQLNLKEYNLV
B2: wild-type US28 receptor with a C-terminal natural peptide tag (US28-NP) [human cytomegalovirus (HCMV)] / LgBiT-Gα12 [not stated] (parent)
chain 1: B1 chain 1
chain 2: MSGVVRTLSRCLLPAEAGGARERRAGSGARDAEREARRRSRDIDALLARERRAVRRLVKILLLGAGESGKSTFLKQMRIIHGREFDQKALLEFRDTIFDNILKGSRVLVDARDKLGIPWQYSENEKHGMFLMAFENKAGLPVEPATFQLYVPALSALWRDSGIREAFSRRSEFQLGESVKYFLDNLDRIGQLNYFPSKQDILLARKATKGIVEHDFVIKKIPFKMVDVGGQRSQRQKWFQCFDGITSILFMVSSSEYDQVLMEDRRTNRLVESMNIFETIVNNKLFFNVSIILFLNKMDLLVEKVKTVSIKKHFPDFRGDPHRLEDVQRYLVQCFDRKRRNRSKPLFHHFTTAIDTENVRFVFHAVKDTILQENLKDIMLQ

Variants of: B1
Experiment: NanoBiT nLuc complementation assay in live HEK-293 cells (Nano-Glo live cell assay), area under the curve
Settings: with LgBiT-Gαq, 18 hours post-transfection media exchanged with serum-free DMEM, 6 hours later luciferase activity monitored for 60 minutes, parent: 2.9e+07, read off a plot
Variant chain 1 S218A has a response (Arbitrary Units) of 1.8e+07. chain 1 S220A gave a response (Arbitrary Units) of 3e+07. Variant chain 1 R225A has a response (Arbitrary Units) of 1.6e+07. For chain 1 D128A R129A Y130A, the response (Arbitrary Units) was 6e+06. Work on chain 1 K223A yielded a response (Arbitrary Units) of 1.7e+07.

Variants of: B2
Experiment: as above
Settings: with LgBiT-Gα12, 18 hours post-transfection media exchanged with serum-free DMEM, 6 hours later luciferase activity monitored for 60 minutes, parent: 2.2e+07, read off a plot
chain 1 S218A gave a response (Arbitrary Units) of 6.8e+06. For chain 1 R225A, the response (Arbitrary Units) was 1.1e+07. In the case of chain 1 K223A, the response (Arbitrary Units) is reported as 8.9e+06. Work on chain 1 D128A R129A Y130A yielded a response (Arbitrary Units) of 2.8e+06. Work on chain 1 S220A yielded a response (Arbitrary Units) of 1.7e+07.
